# Measurements: the nanobody polyreactivity screen of Harvey et al. (2022)
# Test: yeast display, Sf9 membrane polyspecificity reagent, FACS + sequencing; frameworks hold sequencing errors
# Summary of the method: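 Synthetic nanobody libraries on Saccharomyces cerevisiae BJ5465 were galactose-induced for 36–48 hours, stained 1 hour at 4 °C with 10% biotinylated, detergent-solubilized Sf9 membrane reagent and enriched on streptavidin microbeads. FACS then separated cells into low and high (top ~1%) gates by anti-HA (expression) and streptavidin (reagent binding) fluorescence. Genes were colony-PCR amplified, MiSeq 2 × 250 sequenced and CDR-length filtered. A clone's polyreactivity label is that of its gate of origin.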
row,Sequence,polyreactivity (PSR sort gate)
1,QVQLVESGGGLVQAGGSLRLSCAASGFISAGYAMGWYRQAPGKERELVAAITRTGSTNYADSVKGRFTISRDNAKNTVYLQMNSLKPEDTAVYYCAAGRRGSAGYYRQFGYGYWGQGTQVTVSS,high polyreactivity
2,QVQLVESGGGLVQAGGSLRLSCAASGFISAYNAMGWYRPAPGKERELVAAITSGATTKYADSVKGRFTISRDNAKNTVYFQMHSLKPEDTAVYYCAAAPKRRYYVHSGGAYGYWGQGTQVTVSS,high polyreactivity
3,QVQLVESGGGLVQAGGSLRLSCAASGFISDVYAMGCYRQAPGKERELVAVITWRGSTYYAYSVKGRFTISRDNAKNTVYLQMNSLKPEDTAVYYCAAESQGDWAFDYWGQGTQVTVSS,low polyreactivity
4,QVQLVESGGGLVQAGGSLRLSCAASGFISFAYAMGWYRQAPGKERELVAGISRSGDSTYYADSVKGRFTISRDNAKNTVYLQMNSLKPEDTAVYYCAVVTYRSKAHSSRNGKYYYWGQGTQVTVSS,low polyreactivity
5,QVQLVESGGGLVQAGGSLRLSCAASGFISFGNAMGWYIQAPGKERELVAGISRSGGSTYYADSVKGRFTISRDNAKNTVYLQMYSLKPEDTAVYYCATRVAIYPYRFDYWGQGTQVTVSS,high polyreactivity
6,QVQLVESGGGLVQAGGSLRLSCAASGFISGYYTMRWYRQAPGKERELVAVINSGGSTYYADSVKGRFTISRDNAKNTVYFQMNSLKPEDTAVYYCAKLGGKYSRYYYWGHGTQVTVSS,low polyreactivity
7,QVQLVESGGGLVQAGGSLRLSCAASGFISPKYGMGWYRQAPGKERELVAAITPSDGSTSYADSVKGRFTISRDNAKNTVYLQMNSLKPEDTAVYYCNKSRYKSYSYDYWGQGTQVTVSS,high polyreactivity
8,QVQLVESGGGLVQAGGSLRLSCAASGFISPSYAMGWYRPAPGKERELVAAIRSSDGSTYYADSVKGRFTISRDNAKNTVYLQMNSLKPEDTAVYYCAAGGSYYRDDYWGQGTQVTVSS,low polyreactivity
9,QVQLVESGGGLVQAGGSLRLSCAASGFISPSYDMGWYRQAPGKEWELVAAIRSSDGSTYYADSVKGRFTISRDNAKNTVYLQMNSLKPEDTAVYYCNKGVVLTLYVGMDYWGQGTQVTVSS,low polyreactivity
10,QVQLVESGGGLVQAGGSLRLSCAASGFISRKNAMGWYRQAPGKERELVAAISKSGGRTYYADSVKGRFTISRDNAKNTVYLQMNSLKPEDTAVYYCNRVPRDSWPYAWYDYWGQGTQVTVSS,high polyreactivity
11,QVQLVESGGGLVQAGGSLRLSCAASGFISTPYAIGWYRQAPGKERELVAAIDISGGRTYYADSVKGRFTISRDNAKNTVYLQMNSLKPEDTAVYDCAAQLVSSYYAWYRTYYYWGQGTQVTVSS,high polyreactivity
12,QVQLVESGGGLVQAGGSLRLSCAASGFISYTYMGWYRQAPGKERELVAGITGSGGSTYYADSVKGRFTISRDNAKNTVYLQMNILKPEDTAVYYCAAPRYLSYVRRYDYWGQGTQVTVSS,high polyreactivity
13,QVQLVESGGGLVQAGGSLRLSCAASGFISYYYAMGWYRQAPGKDWELVAVITSGGSTDYADSVKGRFTISRDHAKNTVYLQMNSLKPEDTAVYYCARDDPASHKRYWHDYWGQGTQVTVSS,low polyreactivity
14,QVQLVESGGGLVQAGGSLRLSCAASGFISYYYAMGWYRQAPGKEREFVAAITSSGGSTRYADSVKGRFTISRDNAKNTVYLQMNSLKPEDTAVYYCAAGNPYFWPYDYWGQGTQVTVSS,low polyreactivity
15,QVQLVESGGGLVQAGGSLRLSCAASGFIVDWYTRGWYRQAPGKERELVARISSDGSTTYADSVKGRFTISRDNAKNTVSVQMTSLKPEDTAVYYCAADVTYPGLKYIFDDWGQGTQVTVTS,low polyreactivity
16,QVQLVESGGGLVQAGGSLRLSCAASGFIVRNYAMGWYSQAPGKERELVASISRGTSTNYADSVKGRFTISRDNAKNTVYLQMNSLKPEDTAVYYCNKRFYYHPFDYWGQGTQVTVSS,high polyreactivity

row,Sequence,polyreactivity (PSR sort gate)
1,QVQLVESGGGLVQAGGSLRLSCAASGFIVWVYAMGWYRQAPGKERELVAAITSGGGSTYYADSVKGRFTISRDNAKNTVYLQMNSLKPEHTAVYYCNAVSWEGYDFDYWGQGTQVTVSS,high polyreactivity
2,QVQLVESGGGLVQAGGSLRLSCAASGFIYDYAMGWYRQAPGKEREFVARINWSGGSTYYADSVKGRFTISRDNAKNTVYLQMNSLKPEDTAVFYCATSGWAWRTSNPYEYWGQGTQVTVSS,low polyreactivity
3,QVQLVESGGGLVQAGGSLRLSCAASGFIYWYAMGWSRQAPGKERELVAAITWSGGSTYADSVKGRFTISRDNAKNTVYLQMNSLKPEDTAVYYCAADKYSQWSSHTRVRYDYWGQGTQVTVSS,low polyreactivity
4,QVQLVESGGGLVQAGGSLRLSCAASGFIYYAMGWYRQAPGKERELVAAISRGGTTYYADSVKGRFTISRDNAKNTVYLQMNSLKPEVTAVSYCNAVGYRAVGYKTGYARYGYWGQGTQVTVSS,high polyreactivity
5,QVQLVESGGGLVQAGGSLRLSCAASGFLFYYNAMGWYRQAPGKERELVATSTSGGSTNYADSVKGRFTISRDNAKNTVYLQMNSLKPEDTAVYYCAAGHSWVYGYDYWGQGTQVTVSS,low polyreactivity
6,QVQLVESGGGLVQAGGSLRLSCAASGFMFSRYGMGWYRQAPGKERELVAAISGSCGSTYYADSVKGRFTISRDNAKNTVYLQMKSLKPEDTAFYLCATAYSWSNSDWFAYSYDYWGHGTQVTVSS,low polyreactivity
7,QVQLVESGGGLVQAGGSLRLSCAASGFNFDGNAMGWYRQAPGKERELVAAISSSSGRTRYADSVTGRFSISRDNAKNTVYLQMNSLKPEDTAVYYCAARRQSTRPGFYYWGQGTQVTVSS,high polyreactivity
8,QVQLVESGGGLVQAGGSLRLSCAASGFNFEAYTMGWYRQAPGKERELVASIDWDGGSTYYADSVKGRFTISRDNAKNTVYLQMNSLKPEDTAVYYCAADSRQYDELGDYDYWGQGTQVTVSS,low polyreactivity
9,QVQLVESGGGLVQAGGSLRLSCAASGFNFEVNAMGWYRQAPGKERELVAAITTDGSTNYADSVNGRFSSSRDNAKNTVYIQMTSLKPEDTAVYYCAARVQHYLGTDDYWGQGTQVTVSS,low polyreactivity
10,QVQLVESGGGLVQAGGSLRLSCAASGFNFGYYAMGWYRQAPGKERELVAAITSRGGSTYYADSVKGRFTISRDNAKNTDYLQMNSLKPEDTAVYYLAAYSQYLKRDYWGQGTQVTVSS,high polyreactivity
11,QVQLVESGGGLVQAGGSLRLSCAASGFNFIDYAMGWYRQAPGKERELVAAITSSGGRTYYADSVKGRFTISRDNAKITVYLQMTSLKPEDTAVYYCAARLPGYVRIYDYWGQGTQVTVSS,high polyreactivity
12,QVQLVESGGGLVQAGGSLRLSCAASGFNFIKYAMGWSRQSPGKESELVAAISFRGGRTYYADSVKGRITISRDNAKNTVYLQMNSLKPEDTAVYYCAAETRDYSEGYYWGQGTQVTVSS,high polyreactivity
13,QVQLVESGGGLVQAGGSLRLSCAASGFNFLTYAMGWYRQATGKESELVAAISSSGGRTTYADSVKGRFTISRDNAKNTVYLQMNSLKPEDTAVYYCAVEDYTIVLDYESWGQGTQVTVSS,high polyreactivity
14,QVQLVESGGGLVQAGGSLRLSCAASGFNFPRYTMGWSRKAPGKEREFVAGITLRGGSTYYADSVKGRFTISRANAKNTVYLQMNSLKPDETAVYYCARVISRGRSFGIGYDYWGQATQVTVSS,low polyreactivity
15,QVQLVESGGGLVQAGGSLRLSCAASGFNFPYNAMGRYRQAPGKERELVAAITSGSNTYYADSVKGRFTISRDNAKNTVYLQMNSLKPEDTAVYYCAARGHGAYGYWGQGTQVTVSS,low polyreactivity
16,QVQLVESGGGLVQAGGSLRLSCAASGFNFRLYAMGWYRQAPGKERELVATITQRGGRTYYADSVKGRFTISLDNAHNTVYLQMNSLKPEDTAVYYCAATWTVTTGTKFDYWGQGTQVTVAS,high polyreactivity
